{"source": "the nanobody polyreactivity screen of Harvey et al. (2022)", "data": [{"assay": "yeast display, Sf9 membrane polyspecificity reagent, FACS + sequencing; frameworks hold sequencing errors", "outline": "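Using colony PCR, genes from sorted yeast display clones were amplified, then sequenced on MiSeq at 2 × 250 and filtered by CDR length. The clones had been stained with 10% biotinylated, detergent-solubilized Sf9 membrane reagent for 1 hour at 4 °C and sorted by FACS into low and high (top ~1%) gates on anti-HA and streptavidin fluorescence. Polyreactivity labels come from the gate of origin.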", "values": [{"sequence": "QVQLVESGGGLVQAGGSLRLSCAASGRIFYAYAMGWYRQAPGKERELVAAITFSGGSTYADSVKGRFTISRDNAKNTVYLQMNSLKPEDTAVYYCAADFGRHPRDYDYYWGQGTQVTVSL", "polyreactivity (PSR sort gate)": "low polyreactivity"}, {"sequence": "QVQLVESGGGLVQAGGSLRLSCAASGRIFYAYTMGWYRQAPGKERELVAAISGSGSTYYADSVKGRFTISRDNAKNTVYLQMNSLKPEDTAVYYCAADVTGGRKYDYWGQGTQVTVSS", "polyreactivity (PSR sort gate)": "low polyreactivity"}, {"sequence": "QVQLVESGGGLVQAGGSLRLSCAASGRIFYDNAMGWYRQAPGKERELVAAIRIGGSTNYADSVKGRFTISRDNAKNTVYLQMNSLKPEDTAVYYCNGSDNPDSYYPDSVWGDSWGQGSQVTVSS", "polyreactivity (PSR sort gate)": "low polyreactivity"}, {"sequence": "QVQLVESGGGLVQAGGSLRLSCAASGRIFYFNAMGWYRQAPGKEREFVASINSIGDSTYYADSVKGRFTISRDNAKNTVYLHMNSLKPEDTAVYYCNADHGVINYRLDYWGQGTQVTVSS", "polyreactivity (PSR sort gate)": "low polyreactivity"}, {"sequence": "QVQLVESGGGLVQAGGSLRLSCAASGRIFYFNAMGWYRQAPGKERELDAAISWSGGSTYYADSVKGRFTISRDNAKNTVYLQMNSLKPEDTAVYSCATDSYRQGDYYRGRVDYWGQGTQVTVSS", "polyreactivity (PSR sort gate)": "low polyreactivity"}, {"sequence": "QVQLVESGGGLVQAGGSLRLSCAASGRIFYFYAMGWYRQAPGKERELVASISSGSSTNYADSVKGRFTISRDNAKNTVYLQMNSLKPEDTAVYYCAAQPWHGSRARSYYWGQGTQVTVSS", "polyreactivity (PSR sort gate)": "high polyreactivity"}, {"sequence": "QVQLVESGGGLVQAGGSLRLSCAASGRIFYGNAMGWYRQAPGKERELVAVITSSGGSTYYADSVKGRFTISRDNAKNTVYLQMNSLKPEDTAVYYCAKYYRHWYTHLGYDYWGQGTQVTVSS", "polyreactivity (PSR sort gate)": "high polyreactivity"}, {"sequence": "QVQLVESGGGLVQAGGSLRLSCAASGRIFYGNAMGWYRQAPGKEREWVAAISSGTSTNYADSVKGRFTISRDNAKNTVFLQMNSLKPEDTAVYYCADGSYSRYLYSLYFDFDYWGQGTQVTVSS", "polyreactivity (PSR sort gate)": "low polyreactivity"}, {"sequence": "QVQLVESGGGLVQAGGSLRLSCAASGRIFYGNTMGWYRQAPGQERELVATITRSGGSTYYADSVKGRFTISRDNAKNTVYLQMNNLKPEDTAVYYCAVGYWRLFPYGYWGQGTQVTVSS", "polyreactivity (PSR sort gate)": "high polyreactivity"}, {"sequence": "QVQLVESGGGLVQAGGSLRLSCAASGRIFYGNVMGWYRQAPGKERELVAVITSGGNTNYADSVKGRFTISRDNAKNTVYLQMNSLKPEDTAVYYCATAVVAGVWGYDYWGQGTQVTVSS", "polyreactivity (PSR sort gate)": "low polyreactivity"}, {"sequence": "QVQLVESGGGLVQAGGSLRLSCAASGRIFYGYAKGWYRQAPGKERELVASISRRGYSTYYADSVKGRFTISRDNAKNTVYLQMNSLKPEDTAVYYCAAGYYPFNYWCQGTQVTVSS", "polyreactivity (PSR sort gate)": "high polyreactivity"}, {"sequence": "QVQLVESGGGLVQAGGSLRLSCAASGRIFYGYAMGWYRQAPGKERELVAAISSGGITYYADSVKGRFTISRDNAKNTVYLQMNSLKPEDTAVYYCAAEPWYKFDYDYWGQGTQVTVSS", "polyreactivity (PSR sort gate)": "low polyreactivity"}, {"sequence": "QVQLVESGGGLVQAGGSLRLSCAASGRIFYGYAMGWYRQAPGKERELVAAISWRGGRTYYADSVKGRFTISRDNAKNTVYLQMNSLKPEDTAVYYCAVRWPSARIPVKLDYWGQGTQVTVSS", "polyreactivity (PSR sort gate)": "high polyreactivity"}, {"sequence": "QVQLVESGGGLVQAGGSLRLSCAASGRIFYGYAMGWYRQAPGKERELVAAITSGSRTNYADSVKGRFTISRDNAKNTVYLQMNSLKPEDTAVYDCHSRYGSYLYSLVHNTRYDYWGQGTQVTVSS", "polyreactivity (PSR sort gate)": "low polyreactivity"}, {"sequence": "QVQLVESGGGLVQAGGSLRLSCAASGRIFYGYAMGWYRQAPGKEWELVAAITDSGGITYYADSVKGRFTISRDNAKKTVYLQLNSLKPEDTAVYYCTALVRDPAWLSRVGYSGDYWGQGTQVTVSS", "polyreactivity (PSR sort gate)": "high polyreactivity"}, {"sequence": "QVQLVESGGGLVQAGGSLRLSCAASGRIFYGYDMGWYRQAPGKERELVAAITRGVSTYYADSVKGRFTISRDNAKNTVYLQMNSLKPEDTAVYYCAADLSPYVNYWWEYYYWGQGTQVTVSS", "polyreactivity (PSR sort gate)": "low polyreactivity"}, {"sequence": "QVQLVESGGGLVQAGGSLRLSCAASGRIFYGYTMGWYRQAPGKERELVAAITWSGGSTHYADSVKGRFTISRDNAKNTVYLQMNSLKPEDTAVYYCNARRRSVYRGLYDYWGQGTQVTVSS", "polyreactivity (PSR sort gate)": "high polyreactivity"}, {"sequence": "QVQLVESGGGLVQAGGSLRLSCAASGRIFYGYTMVWYRQAPGKERELVAAISWSGGSTSYADSVKGRFTISRDNAKNTVYLQMKSMKPEDTAVYYCAVRYPGYRQYWGYTYDYWGQGTQVTVSS", "polyreactivity (PSR sort gate)": "high polyreactivity"}, {"sequence": "QVQLVESGGGLVQAGGSLRLSCAASGRIFYHYAMGWYRQAPGKERELVAVIRSTGSTNYADSVKGRFTISRDNAKNTVYLQMNSLKPEDTAVYYCAVRRATYSYWYFNGGYWGQGTQVTVSS", "polyreactivity (PSR sort gate)": "high polyreactivity"}, {"sequence": "QVQLVESGGGLVQAGGSLRLSCAASGRIFYIIAMVWYRQAPGKEWELVASITGSGGRTYYADSVKGRFTISRDNAKNTVYLQMNSLKPEDTAVYYCNADLYVGYLYYLYDYWGQGTQVTVSS", "polyreactivity (PSR sort gate)": "low polyreactivity"}, {"sequence": "QVQLVESGGGLVQAGGSLRLSCAASGRIFYINAMGWYRQAPGKERELVAAISWSGSSTYYADSVKGRFTISRDNAKNTIYLQMNSLKPEDTAVYYCATVYYDNHYSAGYDYRGQGTQVTVSS", "polyreactivity (PSR sort gate)": "high polyreactivity"}, {"sequence": "QVQLVESGGGLVQAGGSLRLSCAASGRIFYIYAMGWYRQAPGKERELVAAISSGGTTNYADSVKGRFTISRDNAKNTVYLQMNSLKPEDTSVDYCNAVRGEKMGYWGQGTQVTVSS", "polyreactivity (PSR sort gate)": "high polyreactivity"}, {"sequence": "QVQLVESGGGLVQAGGSLRLSCAASGRIFYKYAMGWYRQAPGKERELVAGISRRGGTTNYADSVKGRFTNSRDNAKNTVYLQMNSLKPEDTAVYYCAVRPLYDRRYTAVRRYDYWGQGTQVTVSS", "polyreactivity (PSR sort gate)": "high polyreactivity"}, {"sequence": "QVQLVESGGGLVQAGGSLRLSCAASGRIFYLKVMGWYRQEPGKERELVAAITRRDVTTYADSVKGRFTISRDNAKNTVYLQMNSLKPEDTAVYYCNADSPSLSGDYWGQGTQVTVSS", "polyreactivity (PSR sort gate)": "low polyreactivity"}, {"sequence": "QVQLVESGGGLVQAGGSLRLSCAASGRIFYLNVMGWYRQAPGKERELVAAITRRDVTTYADSVKGRFTISRDNAKNTVYLQMNSLKPEDTAVYYCNAVYYNWIGFDYSGQGTQVTVSS", "polyreactivity (PSR sort gate)": "low polyreactivity"}, {"sequence": "QVQLVESGGGLVQAGGSLRLSCAASGRIFYLYAMGWYRQAPGKERELVAAITNSDTSTYYADSVKGRFTISRDNAKNTVYLQMNSLKPEDTAVYYCAVSTQYYYFDYYYWGQGTQVTVSS", "polyreactivity (PSR sort gate)": "high polyreactivity"}, {"sequence": "QVQLVESGGGLVQAGGSLRLSCAASGRIFYLYAMGWYRQAPGKERELVAAITWSGGSTTYADSVKGRFTISRDNAKNTFYLQMNSLKPEDTAVYYCNADGWSFPSFSPMDYWGQGTQVTVSS", "polyreactivity (PSR sort gate)": "low polyreactivity"}, {"sequence": "QVQLVESGGGLVQAGGSLRLSCAASGRIFYLYAMGWYRQAPGKERELVATINSGGSTKYADSVKGRFTISRDNAKNTVYLQMNSLKPEDTAVYYCNAKRWKDYYPYQSWKYGYWGQGTQVTVSS", "polyreactivity (PSR sort gate)": "high polyreactivity"}, {"sequence": "QVQLVESGGGLVQAGGSLRLSCAASGRIFYNNAMGWYRQAPGKERELVAAITYSGGSTYYADSVKGRFTISRDNAKNTVYLQMNSLKPEDTAVYYCAAEYYGPYSEGGESYDYWGQGTQVTVSS", "polyreactivity (PSR sort gate)": "low polyreactivity"}, {"sequence": "QVQLVESGGGLVQAGGSLRLSCAASGRIFYPNAKGWYIQAPGKETELVAVIRSRGGSTYYADSVKGRFTISRDNAKNTVYLQMNSLKPEDTAVYYCAARWVGRRTKYDYWGQGTQVTVSS", "polyreactivity (PSR sort gate)": "high polyreactivity"}, {"sequence": "QVQLVESGGGLVQAGGSLRLSCAASGRIFYPNAMGWYRQAPGKERELVAAITWRGGRTYYADSVKGRFTISRDNAKNTVYLQMNSLKPEDTAVYYCNAVAPGKYNHWGQGTQVTVSS", "polyreactivity (PSR sort gate)": "high polyreactivity"}, {"sequence": "QVQLVESGGGLVQAGGSLRLSCAASGRIFYPNAMGWYRQAPGKERELVAVIRSRGGSTYYADSVKGRFTISRDNAKNTVYLQMNSLKPEDTAVYYCAARWVGRRTKYDYWGQGTQVTVSS", "polyreactivity (PSR sort gate)": "high polyreactivity"}, {"sequence": "QVQLVESGGGLVQAGGSLRLSCAASGRIFYPYAMGWYIQAPGKEREFVATIRARCGDSTSYADSVKGRFTISRDIAKNTVYLQMNSLKPEDTAVYYCAALFYTYRWRYYVYHMDYWGQGTQVTVSS", "polyreactivity (PSR sort gate)": "low polyreactivity"}, {"sequence": "QVQLVESGGGLVQAGGSLRLSCAASGRIFYPYAMGWYRQAPGKERELVAAIRRSGVDTYYADSVKGRFTISRDNAKNTVYLQMNSLIPEDTAVYSCAADPYWFFPHYDSWGQGTQVTVSS", "polyreactivity (PSR sort gate)": "low polyreactivity"}, {"sequence": "QVQLVESGGGLVQAGGSLRLSCAASGRIFYPYAMGWYRQAPGKERELVAAISFRDGSTYYADSVKGRFTISRDNAKYTVYLQLNILKPEDTAVYYCAAVGQTHPTSPLYTKYDYWGQGTQVTVSS", "polyreactivity (PSR sort gate)": "low polyreactivity"}, {"sequence": "QVQLVESGGGLVQAGGSLRLSCAASGRIFYPYAMGWYRQAPGKERELVAAISRSGGSTYYADSVKGRFTISRDNAKNTVYLQMNSLKPEDTAVYYCAAEVVYFYSDAHIGYVDYEYWGQGTQVTVSS", "polyreactivity (PSR sort gate)": "low polyreactivity"}, {"sequence": "QVQLVESGGGLVQAGGSLRLSCAASGRIFYPYAMGWYRQAPGKERELVAAISWNGGRTYYADSVKGRFTISRDNAKNTVYLQMNSLKPEDTAVYYCNAGGYSRVTQRFFHKYDYWGQGTQVTVSS", "polyreactivity (PSR sort gate)": "high polyreactivity"}, {"sequence": "QVQLVESGGGLVQAGGSLRLSCAASGRIFYPYAMGWYRQAPGKEREVVAGITSSDDTTYYADSVKGRFTISRDNAKNTVYLQMNSLKPEDTAVYYCNTSVDRGLGYWGQGTQVTVSS", "polyreactivity (PSR sort gate)": "low polyreactivity"}, {"sequence": "QVQLVESGGGLVQAGGSLRLSCAASGRIFYQNAMGWYRQAPGKERELVAAISRGDSTYYADSVRGRFTSSRDNAKNTVFLQMNSLKPEDTAVYYCAARRFSYWGKYGYWGQGTQVTVSS", "polyreactivity (PSR sort gate)": "high polyreactivity"}, {"sequence": "QVQLVESGGGLVQAGGSLRLSCAASGRIFYRNAMGWYRQAPGKERELVAAISKSGGSTYYADSVKGRFTISRDNAKNTVYLQMNSLKPEDTAVYYCNARPGQSGARFGYWGQGTQVTVSS", "polyreactivity (PSR sort gate)": "high polyreactivity"}]}]}
